Tests used:
[1] = target: T1, avirulence protein B (AvrB), wild type (Pseudomonas syringae pv. glycinea, UniProt P13835 1-321); test: ITC; VP-ITC microcalorimeter; RIN4_(142–176) peptide (50 to 450 μM) titrated in 6-μl injections into 5 to 25 μM wild-type or variant AvrB, stirring at 255 rpm; wild-type AvrB 6 μM with full-length RIN4 120 μM; nonbinding confirmed at as much as 25 μM and 450 μM; details: both partners purified
T1 construct: AvrB (avirulence protein B), type III effector of Pseudomonas syringae pv. glycinea; residues 26-53 and 56-321 are modelled in the AvrB/RIN4 structure; also called wild-type AvrB; source: E. coli BL21 Rosetta (pProEX-HTa), purified (nickel column, TEV digestion, Source Q, Sephacryl S200 if needed); not shown: His tag, N-terminal, cleaved
T1 sequence (P13835 whole entry, the tested form may be a part): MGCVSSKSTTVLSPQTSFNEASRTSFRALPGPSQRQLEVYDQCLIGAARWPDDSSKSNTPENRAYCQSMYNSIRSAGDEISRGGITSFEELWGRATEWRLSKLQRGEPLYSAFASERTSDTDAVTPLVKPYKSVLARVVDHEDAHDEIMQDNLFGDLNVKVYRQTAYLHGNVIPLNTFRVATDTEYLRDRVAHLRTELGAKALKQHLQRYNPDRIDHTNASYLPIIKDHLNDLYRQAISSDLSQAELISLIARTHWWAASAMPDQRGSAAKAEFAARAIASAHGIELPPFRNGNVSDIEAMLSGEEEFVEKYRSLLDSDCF

AvrB^QRY/AAA = target: T2, AvrB^QRY/AAA (Pseudomonas syringae pv. glycinea, UniProt P13835 1-321, QRY/AAA (Q208, R209, and Y210 to alanine)); test: as above; details: both partners purified
T2 construct: AvrB (avirulence protein B), Pseudomonas syringae pv. glycinea; also called triple mutation of Q208, R209, and Y210 to alanine; source: E. coli BL21 Rosetta, purified (glutathione column, TEV digestion, Source Q); not shown: GST, N-terminal, cleaved
T2 sequence: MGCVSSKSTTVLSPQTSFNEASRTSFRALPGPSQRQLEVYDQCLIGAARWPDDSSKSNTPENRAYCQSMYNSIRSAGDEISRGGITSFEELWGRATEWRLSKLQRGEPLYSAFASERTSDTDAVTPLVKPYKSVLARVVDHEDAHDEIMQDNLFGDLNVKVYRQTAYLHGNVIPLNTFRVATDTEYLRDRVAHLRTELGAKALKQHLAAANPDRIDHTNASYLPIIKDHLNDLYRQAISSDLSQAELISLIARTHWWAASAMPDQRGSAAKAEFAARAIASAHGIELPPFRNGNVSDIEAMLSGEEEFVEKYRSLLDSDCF

B1: RIN4_(142–176) (peptide, UniProt Q8GYN5 142-176, looked up)
peptide: PEKVTVVPKFGDWDENNPSSADGYTHIFNKVREER
notes: the last four residues are printed as REER; residues 150-172 are modelled in the structure; also called RIN4 peptide
Kd [1]: 3 µM
Kd (AvrB^QRY/AAA): 9 µM
